Molecular target: HLA-DR1 on transfected murine fibroblasts (DAP.3-DR1) (human)
Experiment: radioligand binding

In the case of “staphylococcal enterotoxin B (from UniProt P01552 28-266) (natural protein)”, the Kd is reported as 141 nM.
